Measurements reported in patent US20260234242A1 (HAINAN SIMCERE ZAIMING PHARMACEUTICAL, published 2026).

T1: his-tagged human CDH6 extracellular region protein (hCDH6 ECD-his) (human, UniProt P55285 19-615)
T1 construct: also called Human CDH6-his; hCDH6-his; not shown: his tag
T1 sequence: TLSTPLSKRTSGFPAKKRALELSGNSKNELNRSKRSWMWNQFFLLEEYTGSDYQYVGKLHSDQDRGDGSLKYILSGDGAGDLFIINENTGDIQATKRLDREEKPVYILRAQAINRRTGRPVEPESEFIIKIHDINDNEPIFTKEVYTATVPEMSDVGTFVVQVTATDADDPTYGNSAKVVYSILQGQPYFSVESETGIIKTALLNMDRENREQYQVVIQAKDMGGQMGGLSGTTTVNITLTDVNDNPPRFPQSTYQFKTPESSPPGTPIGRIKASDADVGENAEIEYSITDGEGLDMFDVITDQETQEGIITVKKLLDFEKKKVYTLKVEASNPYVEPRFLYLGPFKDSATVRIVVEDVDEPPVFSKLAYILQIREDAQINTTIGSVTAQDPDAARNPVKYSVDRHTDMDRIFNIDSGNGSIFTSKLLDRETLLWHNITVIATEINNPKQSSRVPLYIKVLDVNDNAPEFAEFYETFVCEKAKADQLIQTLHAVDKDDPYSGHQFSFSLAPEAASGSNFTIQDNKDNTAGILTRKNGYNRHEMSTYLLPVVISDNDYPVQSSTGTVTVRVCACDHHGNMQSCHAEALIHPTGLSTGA

T2: human CDH6 with EC2 removed, on HEK293T cells (HEK293T-hCDH6-EC2 deletion) (human, UniProt P55285 54-790)
T2 construct: Signal peptide not removed here
T2 sequence: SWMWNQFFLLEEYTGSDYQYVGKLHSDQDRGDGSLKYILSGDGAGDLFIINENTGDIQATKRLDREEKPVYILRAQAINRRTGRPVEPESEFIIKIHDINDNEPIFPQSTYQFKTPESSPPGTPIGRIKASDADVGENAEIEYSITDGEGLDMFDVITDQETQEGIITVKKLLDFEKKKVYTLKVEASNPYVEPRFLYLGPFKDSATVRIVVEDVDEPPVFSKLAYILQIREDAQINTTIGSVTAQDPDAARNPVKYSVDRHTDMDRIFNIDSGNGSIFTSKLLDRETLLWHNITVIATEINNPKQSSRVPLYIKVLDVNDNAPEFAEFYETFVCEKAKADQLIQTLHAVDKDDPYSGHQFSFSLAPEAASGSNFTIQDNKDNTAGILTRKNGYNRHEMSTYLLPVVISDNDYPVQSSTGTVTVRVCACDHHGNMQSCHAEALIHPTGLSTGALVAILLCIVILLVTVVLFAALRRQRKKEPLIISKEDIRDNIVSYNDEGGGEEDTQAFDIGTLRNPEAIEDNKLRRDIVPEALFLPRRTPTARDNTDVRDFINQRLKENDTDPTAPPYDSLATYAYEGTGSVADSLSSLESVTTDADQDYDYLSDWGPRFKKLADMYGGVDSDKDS

B1: CHI-CDH6-12 (antibody, human IgG1, kappa, V domains shown)
VH: EVNLVESGGGLVQPGDSLTLSCSASGFTFTDYYMSWVRQFPGKALEWLALIRNKANSYTTEYSASVKGRFTISRDNSQSILYLQMNALRAEDSATYYCARDSYYSHDGFAYWGQGTLVTVSA
VL: DIVLTQSPASLAVSLGQRATISCRASKSVSTSSYTYMHWYQQKPGQPPKLLIKFASYLESGVPARFSGSGSGTDFTLNIHPVEEEDAATYYCQHSREFPFTFGTGTKLEIKR
notes: also called CH1-CDH6-12; chimeric antibody of murine CDH6-12
B2: DS-H01L02 (antibody, human IgG1, kappa, V domains shown)
VH: EVQLVQSGAEVKKPGASVKVSCKASGYTFTRNFMHWVRQAPGQGLEWMGWIYPGDGETEYAQKFQGRVTITADTSTSTAYMELSSLRSEDTAVYYCARGVYGGFAGGYFDFWGQGTLVTVSS
VL: DIQMTQSPSSLSASVGDRVTITCKASQNIYKNLAWYQQKPGKAPKLLIYDANTLQTGVPSRFSGSGSGSDFTLTISSLQPEDFATYFCQQYYSGWAFGQGTKVEIKR
notes: Positive control, variable regions from WO2018212136A1; also called positive control anti-human CDH6 antibody
B3: CHI-CDH6-7 (antibody, human IgG1, kappa, V domains shown)
VH: EVKLVESGGGLVKPGGSLKVSCAASGFTFSDHGMAWVRQAPGKGPEWVAFISNLAYSIYYADTVTGRFTISRENAKNTLYLEMSSLRSEDTAMYYCARVYVKWYFDVWGAGTTVTVSS
VL: DIQMTQSPASLSASVGETVTITCRASENIDSYLAWYQQKQGKSPQLLVFAATLLADGVPSRFSGSGSGTQYSLKINSLQSEDVARYYCQHYYSTPLTFGAGTKLELKR
notes: also called CH1-CDH6-7; chimeric antibody of murine CDH6-7

Key:
[1] = molecular target: T1, his-tagged human CDH6 extracellular …; experiment: ELISA, coated antigen; ELISA, coated hCDH6 ECD-his; plateau signal
Experimental: Human CDH6 protein (hCDH6 ECD-his, conventionally synthesized), monkey CDH6 protein (cynoCDH6 ECD-his, conventionally synthesized; the cynoCDH6 ECD sequence was derived from Uniprot #A0A2K5TW62 (19-615)), and murine CDH6 protein (mCDH6 ECD-his, conventionally synthesized; the mCDH6 ECD sequence was derived from Uniprot #P97326 (19-615)) were diluted with PBS to a final concentration of 1 μg/mL, and added to a 96-well ELISA plate at 100 μL/well. The plate was incubated at 4° C. overnight. The next day, the plate was washed 3 times with a plate washing solution (PBS+0.01% (v/v) Tween 20), and a blocking buffer (PBS+0.01% (v/v) Tween 20+2% (w/w) BSA) was added for blocking at room temperature for 2 h. The blocking buffer was discarded, and the plate was washed 3 times. The chimeric antibodies were diluted with 1% BSA+PBS (purchased from Cytiva, Cat. No. SH30264.01) and added to the 96-well plate at 50 μL/well. After incubation at 37° C. for 2 h, the plate was washed 3 times with a plate washing solution. […] The plate was incubated at 37° C. for 1 h and then washed 5 times with a plate washing solution. A TMB substrate (purchased from Seracare, Cat. No. 5120-0077) was added at 50 μL/well and incubated at room temperature for 10 min, then a stop solution (1.0 N HCl) was added at 50 μL/well. OD450 nm values were read using a microplate reader (Biotek). Analysis was performed by the GraphPad Prism software, data were fitted, and EC50 values were calculated. The chimeric antibodies tested all had strong binding to the human CDH6 protein, the monkey CDH6 protein, and the murine CDH6 protein.

[2] = molecular target: T2, human CDH6 with EC2 removed, on HEK293T …; experiment: FACS, HEK293T-hCDH6-EC2 deletion cells

Row | Binder | Max OD450 [1] | Max MFI [2]
1 | B1 | 1.82 OD450 | 11000 MFI
2 | B2 | 1.89 OD450 | 8390 MFI
3 | B3 | 1.78 OD450 | 13000 MFI
